In publication doi:10.1101/495762 (bioRxiv, 2018):

What was measured:
Smc3(K160C) = target: T1, Smc3(K160C) (S. cerevisiae, UniProt P47037 1-1230, K160C); assay: cross-linking
T1 sequence (looked up): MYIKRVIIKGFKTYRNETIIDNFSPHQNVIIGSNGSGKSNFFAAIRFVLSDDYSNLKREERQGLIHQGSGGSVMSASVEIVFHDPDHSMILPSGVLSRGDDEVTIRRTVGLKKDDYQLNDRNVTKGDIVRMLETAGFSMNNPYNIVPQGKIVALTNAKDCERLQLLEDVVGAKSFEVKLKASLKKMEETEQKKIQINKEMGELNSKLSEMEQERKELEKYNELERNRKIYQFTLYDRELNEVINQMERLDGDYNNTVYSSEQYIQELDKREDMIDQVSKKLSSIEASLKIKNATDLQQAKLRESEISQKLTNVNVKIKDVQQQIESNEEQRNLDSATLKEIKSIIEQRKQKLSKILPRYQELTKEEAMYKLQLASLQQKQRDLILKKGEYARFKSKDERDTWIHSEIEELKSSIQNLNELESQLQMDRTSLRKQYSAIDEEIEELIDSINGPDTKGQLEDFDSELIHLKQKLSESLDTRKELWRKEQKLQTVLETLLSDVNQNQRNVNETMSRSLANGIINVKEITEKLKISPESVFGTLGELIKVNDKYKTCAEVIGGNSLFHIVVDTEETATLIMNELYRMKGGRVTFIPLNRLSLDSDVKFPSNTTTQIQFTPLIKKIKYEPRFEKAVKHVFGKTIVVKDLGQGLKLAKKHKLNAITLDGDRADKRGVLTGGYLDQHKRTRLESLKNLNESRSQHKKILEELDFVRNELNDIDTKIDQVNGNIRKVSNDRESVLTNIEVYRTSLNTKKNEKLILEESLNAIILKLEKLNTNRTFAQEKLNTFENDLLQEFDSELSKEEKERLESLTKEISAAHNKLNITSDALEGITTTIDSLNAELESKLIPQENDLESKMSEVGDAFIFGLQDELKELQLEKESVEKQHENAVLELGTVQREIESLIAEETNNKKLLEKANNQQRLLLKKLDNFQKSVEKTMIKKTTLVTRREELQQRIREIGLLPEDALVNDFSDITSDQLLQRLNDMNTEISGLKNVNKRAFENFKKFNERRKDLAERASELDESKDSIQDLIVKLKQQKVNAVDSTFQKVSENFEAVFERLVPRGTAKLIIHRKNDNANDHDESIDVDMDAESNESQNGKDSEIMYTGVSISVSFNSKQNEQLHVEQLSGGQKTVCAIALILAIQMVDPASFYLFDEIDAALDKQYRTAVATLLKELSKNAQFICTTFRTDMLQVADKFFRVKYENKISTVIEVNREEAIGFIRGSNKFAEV

acetylated Smc3(K160C) = target: T2, acetylated Smc3(K160C) (S. cerevisiae, UniProt P47037 1-1230, K160C, acetylated, residues not given); assay: cross-linking
T2 sequence (looked up): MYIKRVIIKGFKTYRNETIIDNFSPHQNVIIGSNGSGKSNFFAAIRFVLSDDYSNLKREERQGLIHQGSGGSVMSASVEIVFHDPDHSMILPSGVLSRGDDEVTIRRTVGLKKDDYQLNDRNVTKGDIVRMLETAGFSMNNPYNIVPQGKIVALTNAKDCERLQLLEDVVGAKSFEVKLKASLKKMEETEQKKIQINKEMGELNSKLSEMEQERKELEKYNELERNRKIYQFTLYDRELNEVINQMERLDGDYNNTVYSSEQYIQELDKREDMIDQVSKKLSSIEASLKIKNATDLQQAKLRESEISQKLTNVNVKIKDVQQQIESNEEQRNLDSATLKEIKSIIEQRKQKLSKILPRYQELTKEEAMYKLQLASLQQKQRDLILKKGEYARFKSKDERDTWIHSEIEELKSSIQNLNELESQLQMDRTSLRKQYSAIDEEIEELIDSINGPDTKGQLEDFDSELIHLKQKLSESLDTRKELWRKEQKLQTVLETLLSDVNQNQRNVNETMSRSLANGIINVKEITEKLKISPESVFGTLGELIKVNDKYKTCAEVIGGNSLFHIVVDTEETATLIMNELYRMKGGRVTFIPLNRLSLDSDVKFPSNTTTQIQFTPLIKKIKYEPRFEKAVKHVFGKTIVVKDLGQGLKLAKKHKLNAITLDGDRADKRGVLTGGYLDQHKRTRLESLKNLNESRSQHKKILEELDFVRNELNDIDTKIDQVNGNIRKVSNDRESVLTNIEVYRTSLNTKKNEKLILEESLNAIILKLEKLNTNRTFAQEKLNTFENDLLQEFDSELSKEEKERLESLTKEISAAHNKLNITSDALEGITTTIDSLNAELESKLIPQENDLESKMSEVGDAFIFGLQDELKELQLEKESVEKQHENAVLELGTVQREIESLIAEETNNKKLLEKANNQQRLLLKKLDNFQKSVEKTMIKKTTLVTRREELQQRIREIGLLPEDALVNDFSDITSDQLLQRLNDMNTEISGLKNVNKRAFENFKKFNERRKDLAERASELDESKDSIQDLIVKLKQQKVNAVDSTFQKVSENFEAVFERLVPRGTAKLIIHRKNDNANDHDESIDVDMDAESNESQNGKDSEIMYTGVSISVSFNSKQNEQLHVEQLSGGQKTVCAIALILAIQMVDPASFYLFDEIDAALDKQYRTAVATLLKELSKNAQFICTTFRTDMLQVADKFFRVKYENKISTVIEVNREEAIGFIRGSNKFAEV

B1: Smc1(S161C)-HA6 (natural protein, S. cerevisiae, UniProt P32908 1-1225, looked up)
chain: MGRLVGLELSNFKSYRGVTKVGFGESNFTSIIGPNGSGKSNMMDAISFVLGVRSNHLRSNILKDLIYRGVLNDENSDDYDNEGAASSNPQSAYVKAFYQKGNKLVELMRIISRNGDTSYKIDGKTVSYKDYSIFLENENILIKAKNFLVFQGDVEQIAAQCPVELSRMFEEVSGSIQYKKEYEELKEKIEKLSKSATESIKNRRRIHGELKTYKEGINKNEEYRKQLDKKNELQKFQALWQLYHLEQQKEELTDKLSALNSEISSLKGKINNEMKSLQRSKSSFVKESAVISKQKSKLDYIFKDKEKLVSDLRLIKVPQQAAGKRISHIEKRIESLQKDLQRQKTYVERFETQLKVVTRSKEAFEEEIKQSARNYDKFKLNENDLKTYNCLHEKYLTEGGSILEEKIAVLNNDKREIQEELERFNKRADISKRRITEELSITGEKLDTQLNDLRVSLNEKNALHTERLHELKKLQSDIESANNQEYDLNFKLRETLVKIDDLSANQRETMKERKLRENIAMLKRFFPGVKGLVHDLCHPKKEKYGLAVSTILGKNFDSVIVENLTVAQECIAFLKKQRAGTASFIPLDTIETELPTLSLPDSQDYILSINAIDYEPEYEKAMQYVCGDSIICNTLNIAKDLKWKKGIRGKLVTIEGALIHKAGLMTGGISGDANNRWDKEEYQSLMSLKDKLLIQIDELSNGQRSNSIRAREVENSVSLLNSDIANLRTQVTQQKRSLDENRLEIKYHNDLIEKEIQPKITELKKKLDDLENTKDNLVKEKEALQNNIFKEFTSKIGFTIKEYENHSGELMRQQSKELQQLQKQILTVENKLQFETDRLSTTQRRYEKAQKDLENAQVEMKSLEEQEYAIEMKIGSIESKLEEHKNHLDELQKKFVTKQSELNSSEDILEDMNSNLQVLKRERDGIKEDIEKFDLERVTALKNCKISNINIPISSETTIDDLPISSTDNEAITISNSIDINYKGLPKKYKENNTDSARKELEQKIHEVEEILNELQPNARALERYDEAEGRFEVINNETEQLKAEEKKILNQFLKIKKKRKELFEKTFDYVSDHLDAIYRELTKNPNSNVELAGGNASLTIEDEDEPFNAGIKYHATPPLKRFKDMEYLSGGEKTVAALALLFAINSYQPSPFFVLDEVDAALDITNVQRIAAYIRRHRNPDLQFIVISLKNTMFEKSDALVGVYRQQQENSSKIITLDLSNYAE
In the case of B1, the cross-linking efficiency (Smc3(K160C)) is reported as 7% and the cross-linking efficiency (acetylated Smc3(K160C)) is reported as 37%.
